{
  "source": "paper PMC11208920",
  "about": "“The binding of LARP6 and DNAAF6 in biomolecular condensates influences ciliogenesis of multiciliated cells”",
  "key": {"[1]": {"target": "T1, rLARP6 (recombinant human LARP6, LAM+RRM only) (Homo sapiens, UniProt Q9BRS8 73-303)", "T1 sequence": "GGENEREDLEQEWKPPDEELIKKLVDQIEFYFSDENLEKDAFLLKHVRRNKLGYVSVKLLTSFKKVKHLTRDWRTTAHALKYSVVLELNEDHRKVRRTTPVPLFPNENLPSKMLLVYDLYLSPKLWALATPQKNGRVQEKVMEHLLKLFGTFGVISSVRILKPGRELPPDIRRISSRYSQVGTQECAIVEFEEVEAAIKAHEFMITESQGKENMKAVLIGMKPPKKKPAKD", "assay": "EMSA; 5 mM Mg2+; monomer and dimer complexes; 10 mM Tris pH 7.5, 100 mM KCl, 5 mM MgCl2, room temperature, 10 min; 6% native gel, SYBR Gold", "details": "protein: recombinant"}, "[2]": {"target": "T1, rLARP6 (recombinant human LARP6, …)", "assay": "EMSA; 5 mM Mg2+; 10 mM Tris pH 7.5, 100 mM KCl, 5 mM MgCl2, room temperature, 10 min; 6% native gel, SYBR Gold", "details": "protein: recombinant; label: SYBR Gold stain"}},
  "data": [
    {"binder": "CCACAAAGAGUCUACAUGUCUAGGGUCUAGACAUGUUCAGCUUUGUGG (structured_RNA)", "note": "[hCOL1A2 WT RNA]", "values": [
      {"measurement": "binding result", "setting": "[1]; label: SYBR Gold stain", "result": "binds"}
    ]},
    {"binder": "CCACAAAGUGACUACAUGUCUAGGGUCUAGACAUGUUAUUCUUUGUGG (structured_RNA)", "note": "[hCOL1A2 MUT RNA]", "values": [
      {"measurement": "binding result", "setting": "[2]", "result": "no binding"}
    ]},
    {"binder": "xTUBA1CL RNA probe (ssRNA) RNA: GAGGGAGAAGAAUAUUAAAUAAUAAAUCAAAAGCUUCACAAUAAUACCUGCAGAUUUUGUUUGAAAUAAUAAUUUUGAAUAAAUACGUUUUUAUCUUGUA", "values": [
      {"measurement": "binding result", "setting": "[1]; label: SYBR Gold stain (Results text says radiolabeled)", "result": "binds"}
    ]}
  ]
}
